Among the data in the RNAGym collection of RNA variant scans (doi:10.7554/elife.80360) are self-cleavage values, retold here.

B1: HDV Ribozyme (parent)
chain: GGCCGGCAUGGUCCCAGCCUCCUCGCUGGCGCCGGCUGGGCAACAUUCCGAGGGGACCGUCCCCUCGGUAAUGGCGAAUGGGACCCA

In this series the parent is B1. Nature of the series: self-cleavage, relative activity (ratio to wild type); higher = more cleavage; co-transcriptional.
Turning to G17A C48A, the self-cleavage stood at 0.506.

Regarding G17A C48G, the self-cleavage was 0.46.

Turning to C18U C58U, the self-cleavage was 0.554. For G17C A77G the value was 0.0615. With G17C A77U, the self-cleavage is 0.

Turning to G17A C33U, the self-cleavage was 0.566. As to A16U C33U, the self-cleavage was 0.684. Take A16U C33G: the self-cleavage worked out at 0.166. For A16U G40C the value was 0.365; for G17U A51C, 0.831. For C18A G25U the value was 0.162; for G17U U37C, 0.612; for G17U C61U, 0.471.

Regarding C18A A42C, the self-cleavage stood at 0.0707. For C18A A42U the value was 0.0437.

Consider G17C A70C, for which the self-cleavage came out at 0.0536. To C18G G76C belongs 0.147. For G17A G34U the value was 0.0346. For A16U C84A the value was 0.665; for G17C U20G, 0.128; for G17U U47C, 0.298. In the case of G17U C49A, the self-cleavage was found to be 0.614. For A16U G50A, the self-cleavage amounted to 0.933.

In the case of A16U G67U, the self-cleavage came out at 0.975. As for G17A C75A, the self-cleavage was 0.128. To G17A C75U belongs 0.138; to C18G C58U, 0.0978. For C18G C58G the value was 0. To C18A U46A belongs 0.0923; to G17U G53U, 0.42; to G17U G53C, 0.354. Regarding G17U G53A, the self-cleavage stood at 0.641. On to C18G C62U, for which the self-cleavage turned out to be 0.308. Take G17A U23C: the self-cleavage is 0.462. To G17A G53U belongs 0.718; to C18A A71U, 0; to C18G C19U, 0.0898. To G17A C19G belongs 0; to G17A C19A, 0.142; to G17U G31U, 0.0723. For A16U U65G the value was 0.997; for G17C C64G, 0.298. G17U C64U: the self-cleavage is 0.521. For G17A C44G the value was 0.268; for C18A U23A, 0.122; for C18A U23G, 0.155. To C18U A87G belongs 0.733; to C18U A87C, 0.692; to G17A G31A, 0.234.

On to A16U C44G, for which the self-cleavage worked out at 0.604. Regarding C18A A83G, the self-cleavage was found to be 0.0443. To G17U G76A belongs 0.73; to G17A U46C, 0.506; to C18G U27C, 0.237.

Consider C18A G38U, for which the self-cleavage is 0.0652.

As for C18A G38C, the self-cleavage came out at 0.145.

For the variant C18U C21U, the self-cleavage was determined as 0.0911. For C18U C21A the value was 0.115.

Take G17U C62U: the self-cleavage was 0.602. For G17U C62G, the self-cleavage amounted to 0.492. To G17A G35U belongs 0.0906; to G17U C32A, 0.136. For G17U C32G the value was 0.0386. To C18U C19U belongs 0; to C18U C19G, 0.0297; to A16U U79A, 1.09. As to G17C A43C, the self-cleavage is 0.119.

On to C18G U47A, for which the self-cleavage amounted to 0. For C18A G67A the value was 0.163. On to A16U G34U, for which the self-cleavage amounted to 0.128. For G17U G28C, the self-cleavage is 0.0652. Consider G17U C86U, for which the self-cleavage was 0.612.

As to G17A C36G, the self-cleavage stood at 0.0475.

Consider G17A G28C, for which the self-cleavage is 0.0489. For the variant C18U C66G, the self-cleavage is 0.813. To C18G C21A belongs 0; to C18A G68U, 0.147. To G17U A70U belongs 0.574; to C18A U69C, 0.138. To C18A C24U belongs 0.104; to C18A C24A, 0.163. Regarding G17A A56U, the self-cleavage came out at 0.528.

In the case of G17C G39U, the self-cleavage was 0.108. Consider C18G G54U, for which the self-cleavage amounted to 0.0563. Take A16U C26U: the self-cleavage was determined as 0.831. For C18A C85A the value was 0.224; for C18A C85U, 0.158; for G17A G67A, 0.501. Regarding C18G C48U, the self-cleavage stood at 0. As to G17A C62U, the self-cleavage turned out to be 0.554. For C18G C57A the value was 0.0536; for C18A G40A, 0.0426.

Take G17C C57U: the self-cleavage is 0.256. To C18G G82C belongs 0; to C18G C22U, 0.0504; to G17U G52U, 0.517. To G17U C75A belongs 0.198. For C18G G73C the value was 0.104; for G17A C22A, 0.128; for G17A C22U, 0.194. On to G17C G35C, for which the self-cleavage is 0.0437. For the variant G17C C63U, the self-cleavage amounted to 0.397. Take G17U C18G: the self-cleavage was 0.095. Regarding C18G U79A, the self-cleavage turned out to be 0.0615.

Turning to C18U C33G, the self-cleavage was 0.252. With G17A C26U, the self-cleavage was 0.726. For C18U C57G the value was 0.831; for C18G G29C, 0.939. To G17A C63U belongs 0.88.

Consider C18A C63G, for which the self-cleavage amounted to 0.0791. As for C18G A71C, the self-cleavage was determined as 0.172. Consider C18G A71U, for which the self-cleavage turned out to be 0.0723. To A16U C57A belongs 1.17; to G17U C58G, 0.277; to G17U C58U, 0.708. Regarding G17A C21U, the self-cleavage is 0.

Turning to A16U G73C, the self-cleavage turned out to be 0.437.

Regarding A16U G73A, the self-cleavage stood at 0.222. For G17C G82C the value was 0.133. To G17A G68C belongs 0.575. In the case of A16U C61A, the self-cleavage worked out at 1.11. Turning to G17U C41G, the self-cleavage is 0.0462.

As for A16U C36U, the self-cleavage turned out to be 0.631. To C18U C62U belongs 0.831; to C18G A45G, 0.0639.

Regarding G17C C33U, the self-cleavage came to 0.0475. As to G17C U60C, the self-cleavage was determined as 0.208. On to C18G C61U, for which the self-cleavage stood at 0.0519. As to A16U U69A, the self-cleavage was 0.911. To A16U U69C belongs 0.643.

Consider A16U G31C, for which the self-cleavage came to 0.0437. For G17A G76C the value was 0.665; for G17A G76U, 0.863. With C18A U47A, the self-cleavage worked out at 0.0692. For C18G C41U the value was 0.161. C18A C41U: the self-cleavage worked out at 0.0339. To C18A U72A belongs 0.0504; to G17C C41A, 0.111. To G17C U46A belongs 0.237; to A16U G17A, 0.712; to G17C G38C, 0.0831. For G17C G38A the value was 0.0396. Regarding C18A C62U, the self-cleavage stood at 0.264.

On to G17A G55A, for which the self-cleavage worked out at 0.705.

As to G17A A43G, the self-cleavage worked out at 0.277.

On to C18U A51C, for which the self-cleavage was 0.901. Regarding G17C G74A, the self-cleavage stood at 0.089. For the variant C18G G52U, the self-cleavage was determined as 0.203. To C18A C61U belongs 0.237; to C18G U20A, 0.161. To G17C C48U belongs 0.175; to A16U C41G, 0.401. Regarding A16U C41A, the self-cleavage came to 0.87. To C18G C33G belongs 0.119; to A16U C86U, 0.852.

As to G17C C24G, the self-cleavage was found to be 0.0898. Take G17C G76C: the self-cleavage amounted to 0.499.

Regarding G17C G76U, the self-cleavage is 0.773. For G17C G76A the value was 0.446. For the variant G17A G38A, the self-cleavage is 0.104. Regarding A16U A78C, the self-cleavage stood at 0.156. Turning to G17C C66G, the self-cleavage came out at 0.32.

G17U C85G: the self-cleavage is 0.554.

As to G17U C85U, the self-cleavage was 0.614. To G17U C85A belongs 0.538. For G17C C61A the value was 0.185; for C18A C58A, 0.285.
